According to patent US20230002503A1:

Tests used:
[1] = biological target: human CAIX on CHO cells (CHO-hCAIX) (human) (UniProt Q16790); test: flow cytometry on CHO-hCAIX cells
[2] = biological target: murine CAIX on CHO cells (CHO-mCAIX) (mouse) (UniProt Q8VHB5); test: flow cytometry on CHO-mCAIX cells
[3] = biological target: monkey CAIX on CHO cells (CHO-cyCAIX) (monkey); test: flow cytometry on CHO-cyCAIX cells
[4] = biological target: human CAIX antigen (purchased from AcroBiosystems) (human) (UniProt Q16790); test: BLI (ForteBio), method of Example 3

murine CAIX on CHO cells (CHO-mCAIX) (mouse), sequence (Q8VHB5 32-437): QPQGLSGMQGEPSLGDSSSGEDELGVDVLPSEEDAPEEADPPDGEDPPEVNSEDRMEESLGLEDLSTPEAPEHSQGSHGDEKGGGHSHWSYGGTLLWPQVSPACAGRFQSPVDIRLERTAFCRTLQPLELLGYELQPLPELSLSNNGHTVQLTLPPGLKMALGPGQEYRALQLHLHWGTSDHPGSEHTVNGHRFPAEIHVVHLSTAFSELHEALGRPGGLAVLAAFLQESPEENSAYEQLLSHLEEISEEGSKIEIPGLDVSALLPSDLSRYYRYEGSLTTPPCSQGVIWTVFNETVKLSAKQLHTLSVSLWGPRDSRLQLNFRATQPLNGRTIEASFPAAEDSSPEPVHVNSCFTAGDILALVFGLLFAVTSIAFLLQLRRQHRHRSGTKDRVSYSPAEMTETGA

Substance: Gerentuximab (antibody)
- EC50 [1]: 16.5 nM
- EC50 [2]: 35.1 nM
- EC50 [3]: 27.9 nM
- Kd [4]: 1.01 nM
- koff [4]: 0.0001 s⁻¹
- kon [4]: 98600 M⁻¹ s⁻¹
